B1: BTBD10 (parent)
chain: DRKLHSRPRKLYKHSSTSSRIAKG

Experimental findings from the supplement of paper PMC10567573 are described below.
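Note: lentivirally expressed fusions sorted by FACS into six bins by GFP to DsRed ratio, PSI derived from sequencing read proportions per bin multiplied by bin number.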

Variants of B1 are the subject of the series. Put plainly: protein stability index of a GFP-peptide fusion (GPS, HEK-293T) (PSI 1-6); higher = more stable. The conditions noted are these: c terminus: a fixed tail appended.
In the case of DRKLHSRPRKLTKHSSTSSRIAKG [Y12T], the protein stability index came to 4.05.

Consider DRKLHSRPRKLSKHSSTSSRIAKG [Y12S], for which the protein stability index turned out to be 4.65.

With DRKLHSRPRKLDKHSSTSSRIAKG [Y12D], the protein stability index was 4.27. The value for DRKLHSRPRKLKKHSSTSSRIAKG [Y12K] was 4.72; that for DRKLHSRPRKLHKHSSTSSRIAKG [Y12H] was 3.78.

With DRKLHSRPRKLNKHSSTSSRIAKG [Y12N], the protein stability index turned out to be 4.12.

As for DRKLHSRPRKLPKHSSTSSRIAKG [Y12P], the protein stability index was 4.15. On to DRKLHSRPRKLMKHSSTSSRIAKG [Y12M], for which the protein stability index was found to be 3.11. Take DRKLHSRPRKLAKHSSTSSRIAKG [Y12A]: the protein stability index stood at 4.54.

As to DRKLHSRPRKLGKHSSTSSRIAKG [Y12G], the protein stability index was 4.65.

Regarding DRKLHSRPRKLYKHSSTSHRIAKG [S19H], the protein stability index worked out at 3.5. Next, DRKLHSRPRKLYKHSSTSIRIAKG [S19I]: 3.7; DRKLHSRPRKLYKHSSTSNRIAKG [S19N]: 3.58; DRKLHSRPRKLYKHSSTSDRIAKG [S19D]: 3.93. The value for DRKLHSRPRKLYKHSSTSGRIAKG [S19G] was 3.57.

Turning to DRKLHSRPRKLYKHSSTSCRIAKG [S19C], the protein stability index amounted to 3.62. Next, DRKLHSRPRKLYKHSSTSSRYAKG [I21Y]: 4.48. In the case of DRKLHSRPRKLYKHSSTSSRVAKG [I21V], the protein stability index is 3.74. For the variant DRKLHSRPRKLYKHSSTSSRAAKG [I21A], the protein stability index is 3.5.

As to DRKLHSRPRKLYKHSSTSSRQAKG [I21Q], the protein stability index amounted to 3.36. Next, DRKLHSRPRKLYKHSSTSSRWAKG [I21W]: 3.33; DRKLHSRPRKLYKHSSTSSRFAKG [I21F]: 3.65. As to DRKLHSRPRKLYKHSSTSSRCAKG [I21C], the protein stability index was determined as 3.88. Next, DRKLHSRPRKLYKHSSTSSRMAKG [I21M]: 3.77; DRKNHSRPRKLYKHSSTSSRIAKG [L4N]: 3.77. Next, DRKHHSRPRKLYKHSSTSSRIAKG [L4H]: 4.09. As for DRKIHSRPRKLYKHSSTSSRIAKG [L4I], the protein stability index was 3.62. The value for DRKEHSRPRKLYKHSSTSSRIAKG [L4E] was 4.28; that for DRKFHSRPRKLYKHSSTSSRIAKG [L4F] was 3.92. Take DRKLHYRPRKLYKHSSTSSRIAKG [S6Y]: the protein stability index was 3.78.

Consider DRKLHQRPRKLYKHSSTSSRIAKG [S6Q], for which the protein stability index was 3.89. On to DRKLHGRPRKLYKHSSTSSRIAKG [S6G], for which the protein stability index worked out at 3.48. On to DRKLHERPRKLYKHSSTSSRIAKG [S6E], for which the protein stability index was 4.41. Consider DRKLHIRPRKLYKHSSTSSRIAKG [S6I], for which the protein stability index worked out at 3.58. For the variant DRKLHPRPRKLYKHSSTSSRIAKG [S6P], the protein stability index worked out at 4.42. In the case of DRKLHLRPRKLYKHSSTSSRIAKG [S6L], the protein stability index amounted to 2.4.

Regarding DRKLHSRPRKLYAHSSTSSRIAKG [K13A], the protein stability index was 4.04.

Regarding DRKLHSRPRKLYRHSSTSSRIAKG [K13R], the protein stability index worked out at 3.74.

DRKLHSRPRKLYHHSSTSSRIAKG [K13H]: the protein stability index was 3.65. The value for DRKLHSRPRKLYQHSSTSSRIAKG [K13Q] was 4.12. DRKLHSRPRKLYCHSSTSSRIAKG [K13C]: the protein stability index amounted to 3.68. The value for DRKLHSRPRKLYMHSSTSSRIAKG [K13M] was 2.84. For the variant DRKLHSRPRKLYVHSSTSSRIAKG [K13V], the protein stability index is 3.69. Next, DRKLHSRPRKLYIHSSTSSRIAKG [K13I]: 2.68; DRKLHSRPRKLYKHSSMSSRIAKG [T17M]: 3.28; DRKLHSRPRKLYKHSSCSSRIAKG [T17C]: 3.35. Next, DRKLHSRPRKLYKHSSNSSRIAKG [T17N]: 3.18; DRKLHSRPRKLYKHSSISSRIAKG [T17I]: 3.56; DRKLHSRPRKLYKHSSGSSRIAKG [T17G]: 2.9. With DRKLHSRPRKLYKHSSLSSRIAKG [T17L], the protein stability index is 4.48. Next, DRKLHSRPRKLYKHSSSSSRIAKG [T17S]: 3.86; DRKLHSRPRKLYKHGSTSSRIAKG [S15G]: 4.49; DRKLHSRPRKLYKHTSTSSRIAKG [S15T]: 4.17.

For the variant DRKLHSRPRKLYKHISTSSRIAKG [S15I], the protein stability index is 3.43.

In the case of DRKLHSRPRKLYKHFSTSSRIAKG [S15F], the protein stability index came out at 3. The value for DRKLHSRPRKLYKHWSTSSRIAKG [S15W] was 3.1; that for DRKLHSRPRKLYKHCSTSSRIAKG [S15C] was 3.89; that for DRKLHSRPRKLYKHYSTSSRIAKG [S15Y] was 3.67. Turning to DRKLHSRPRKLYKHMSTSSRIAKG [S15M], the protein stability index is 3.1. The value for DRKLHSRPRKLYKHQSTSSRIAKG [S15Q] was 3.85. Next, DRKLHSRPRKLYKHDSTSSRIAKG [S15D]: 4.22; DRKLHSRPRKLYKDSSTSSRIAKG [H14D]: 3.58; DRKLHSRPRKLYKTSSTSSRIAKG [H14T]: 4.19. Regarding DRKLHSRPRKLYKQSSTSSRIAKG [H14Q], the protein stability index is 3.79. Next, DRKLHSRPRKLYKNSSTSSRIAKG [H14N]: 4.43; DRKLHSRPRKLYKISSTSSRIAKG [H14I]: 3.88; DRKLHSRPRKLYKFSSTSSRIAKG [H14F]: 4.44. The value for DRKLHSRPRKLYKKSSTSSRIAKG [H14K] was 3.64; that for DRKLHSRPRKLYKSSSTSSRIAKG [H14S] was 3.66; that for DRKLHSRPRKLYKPSSTSSRIAKG [H14P] was 3.54. For DRKLHSRPRKLYKRSSTSSRIAKG [H14R], the protein stability index was found to be 4.05. Turning to DRKLHSRPRKYYKHSSTSSRIAKG [L11Y], the protein stability index is 3.7.

On to DRKLHSRPRKEYKHSSTSSRIAKG [L11E], for which the protein stability index came to 4.49. Next, DRKLHSRPRKNYKHSSTSSRIAKG [L11N]: 3.46. The value for DRKLHSRPRKCYKHSSTSSRIAKG [L11C] was 2.99; that for DRKLHSRPRKVYKHSSTSSRIAKG [L11V] was 3.82; that for DRKLHSRPRKMYKHSSTSSRIAKG [L11M] was 4.67. The value for DRKLHSRPRKKYKHSSTSSRIAKG [L11K] was 4.19; that for DRKLHSRPRKGYKHSSTSSRIAKG [L11G] was 4.16. As to KRKLHSRPRKLYKHSSTSSRIAKG [D1K], the protein stability index amounted to 3.2. Regarding ERKLHSRPRKLYKHSSTSSRIAKG [D1E], the protein stability index is 3.89.

For VRKLHSRPRKLYKHSSTSSRIAKG [D1V], the protein stability index amounted to 3.93. In the case of IRKLHSRPRKLYKHSSTSSRIAKG [D1I], the protein stability index was determined as 2.54. The value for ARKLHSRPRKLYKHSSTSSRIAKG [D1A] was 3.27; that for CRKLHSRPRKLYKHSSTSSRIAKG [D1C] was 3.94.

Consider DRKLHSRPRKLYKHSPTSSRIAKG [S16P], for which the protein stability index worked out at 3.87. The value for DRKLHSRPRKLYKHSLTSSRIAKG [S16L] was 3.92; that for DRKLHSRPRKLYKHSETSSRIAKG [S16E] was 3.99; that for DRKLHSRPRKLYKHSHTSSRIAKG [S16H] was 3.55. Consider DRKLHSRPRKLYKHSCTSSRIAKG [S16C], for which the protein stability index is 3.43. Consider DRKLHSRPRKLYKHSDTSSRIAKG [S16D], for which the protein stability index was 3.83. The value for DRKLHSRPRKLYKHSKTSSRIAKG [S16K] was 2.94; that for DRKLHSRPRKLYKHSQTSSRIAKG [S16Q] was 4.18.

For DRKLHSRPRKLYKHSWTSSRIAKG [S16W], the protein stability index stood at 3.25.
